Experimental data published in patent US20230322953A1 (HARBOUR BIOMED SHANGHAI, published 2023).

Columns and labels:
[1] = target: T1, human BCMA on NCI-H929 cells (ATCC, CRL-9068) (human, UniProt Q02223 1-184); assay: cell-based or functional assay
T1 sequence (looked up): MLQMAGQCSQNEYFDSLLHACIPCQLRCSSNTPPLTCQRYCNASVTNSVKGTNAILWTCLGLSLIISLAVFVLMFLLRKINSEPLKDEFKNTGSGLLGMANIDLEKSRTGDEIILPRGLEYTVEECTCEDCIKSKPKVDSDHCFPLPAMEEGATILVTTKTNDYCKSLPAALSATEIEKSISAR

[2] = target: T2, human CD3 (TCR/CD3 complex) on human T cells (human, UniProt P07766 23-207); assay: flow cytometry (FACS) on human T cells, Experiment 1
T2 construct: whole, on cells
T2 sequence (P07766 23-207, one chain of several): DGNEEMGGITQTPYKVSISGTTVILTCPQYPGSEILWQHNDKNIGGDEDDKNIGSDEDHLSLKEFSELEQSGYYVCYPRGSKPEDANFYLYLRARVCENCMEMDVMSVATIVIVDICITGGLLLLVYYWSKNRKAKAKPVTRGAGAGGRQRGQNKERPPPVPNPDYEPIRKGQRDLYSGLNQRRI

[3] = target: T1, human BCMA on NCI-H929 cells (ATCC, …); assay: cell-based or functional assay; remark: listed apart in the source
[4] = target: T3, cynomolgus monkey CD3 (TCR/CD3 complex) on cynomolgus monkey T cells (cynomolgus monkey); assay: flow cytometry (FACS) on cynomolgus monkey T cells
T3 construct: whole, on cells
T3 sequence (Q95LI5 22-198, one chain of several): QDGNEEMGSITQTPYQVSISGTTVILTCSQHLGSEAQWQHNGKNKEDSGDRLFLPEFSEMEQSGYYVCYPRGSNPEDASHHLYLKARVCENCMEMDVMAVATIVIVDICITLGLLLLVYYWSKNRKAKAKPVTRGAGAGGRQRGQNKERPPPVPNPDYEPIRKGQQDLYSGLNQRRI

[5] = target: T2, human CD3 (TCR/CD3 complex) on human T …; assay: flow cytometry (FACS) on human T cells, Experiment 3
[6] = target: T1, human BCMA on NCI-H929 cells (ATCC, …); assay: cell-based or functional assay; remark: listed apart in the source
[7] = target: T4, cynomolgus monkey BCMA (ACRO Biosystems, #BCA-C82F4) (cynomolgus monkey, UniProt A0A2K5UD97 1-53); assay: BLI (Octet Red96e), cyBCMA.Fc on SA sensor, 1:1 global fitting
T4 construct: Bought protein; also called cyBCMA.Fc
T4 sequence (A0A2K5UD97 entry or part of it): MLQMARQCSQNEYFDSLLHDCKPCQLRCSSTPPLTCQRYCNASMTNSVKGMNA

[8] = target: T5, biotinylated human BCMA-Fc, Avitag recombinant protein (ACRO Biosystems, #BC7-H82F0) (human, UniProt Q02223 1-54, biotinylated (Avitag)); assay: BLI (Octet Red96e), biotinylated BCMA-Fc on SA sensor, 1:1 global fitting;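 also: Anti-BCMA antibodies analysed as binding partners of the captured BCMA antigen, with reference signals removed by double referencing before kinetic fitting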
T5 construct: extracellular domain; Bought protein; also called huBCMA.Fc; recombinant human BCMA-ECD-Fc
T5 sequence (looked up): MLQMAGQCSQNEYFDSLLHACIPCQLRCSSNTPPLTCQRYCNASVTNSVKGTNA

[9] = target: T4, cynomolgus monkey BCMA (ACRO …); assay: BLI; KD for cynomolgus monkey BCMA divided by KD for human BCMA
[10] = target: T6, biotinylated human BCMA-Fc, Avitag recombinant protein (ACRO Biosystems, #BC7-H82F0) (human, UniProt Q02223 1-54, biotinylated); assay: BLI (Octet Red96e), biotinylated BCMA-Fc on SA sensor, antibody in solution, 1:1 global fit
T6 construct: extracellular domain; Bought protein; also called human BCMA protein; recombinant human BCMA-ECD-Fc; not shown: Fc of the bought fusion protein; Avitag
T6 sequence (looked up): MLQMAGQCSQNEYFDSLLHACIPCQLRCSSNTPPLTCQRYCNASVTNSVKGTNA

[11] = target: T7, human BCMA (human, UniProt Q02223 1-184); assay: flow cytometry, HEK293T/hBCMA cells
T7 construct: whole, on cells; the cell line is named under assay; also called TNFRSF17; CD269
T7 sequence (looked up): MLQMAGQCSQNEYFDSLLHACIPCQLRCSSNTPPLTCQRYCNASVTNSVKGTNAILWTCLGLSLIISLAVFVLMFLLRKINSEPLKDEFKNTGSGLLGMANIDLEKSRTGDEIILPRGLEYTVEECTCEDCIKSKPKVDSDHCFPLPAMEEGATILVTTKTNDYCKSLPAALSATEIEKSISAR

[12] = target: T7, human BCMA; assay: flow cytometry, NCI-H929 cells
[13] = target: T8, cynomolgus monkey BCMA (cynomolgus monkey); assay: flow cytometry, HEK293T/cyno BCMA cells
T8 construct: whole, on cells; also called cyno BCMA; HEK293T/cyno BCMA cells

B1: PR001990 (bispecific antibody, human IgG1, lambda, L234A L235A)
light: QAVVTQEPSLTVSPGGTVTLTCRSSTGAVTTSNYANWVQQKPGQAPRGLIGGTNKRAPWTPARFSGSLLGDKAALTLLGAQPEDEAEYFCALWYSNLWVFGGGTKLTVLGQPKAAPSVTLFPPSSEELQANKATLVCLISDFYPGAVTVAWKADSSPVKAGVETTTPSKQSNNKYAASSYLSLTPEQWKSHRSYSCQVTHEGSTVEKTVAPTECS
heavy: EVQLLESGGGLVQPGGSLRLSCAASGFTFNTYAMNWVRQAPGKGLEWVSRIRSKYNNYATYYADSVKDRFTISRDDSKSTLYLQMNSLRAEDTAVYYCVRHGNFGNSYVSWFAYWGQGTLVTVSSASTKGPSVFPLAPSSKSTSGGTAALGCLVKDYFPEPVTVSWNSGALTSGVHTFPAVLQSSGLYSLSSVVTVPSSSLGTQTYICNVNHKPSNTKVDKKVEPKSCDKTHTCPPCPAPEAAGGPSVFLFPPKPKDTLMISRTPEVTCVVVDVSHEDPEVKFNWYVDGVEVHNAKTKPREEQYNSTYRVVSVLTVLHQDWLNGKEYKCKVSNKALGAPIEKTISKAKGQPREPQVYTLPPCREEMTKNQVSLWCLVKGFYPSDIAVEWESNGQPENNYKTTPPVLDSDGSFFLYSKLTVDKSRWQQGNVFSCSVMHEALHNHYTQKSLSLSPGK
chain: EVQLVETGGGLIQPGGSLRLSCAASGFTVSDNYMTWVRQAPGKGLEWVSVIFSGGNTYYADSVKGRFTISRDNAKNTLYLQMNSLRAEDTALYYCARRNYDDTRGTDVFDIWGQGTMVTVSSASEPKSSDKTHTCPPCPAPEAAGGPSVFLFPPKPKDTLMISRTPEVTCVVVDVSHEDPEVKFNWYVDGVEVHNAKTKPREEQYNSTYRVVSVLTVLHQDWLNGKEYKCKVSNKALGAPIEKTISKAKGQPREPQVCTLPPSREEMTKNQVSLSCAVKGFYPSDIAVEWESNGQPENNYKTTPPVLDSDGSFFLVSKLTVDKSRWQQGNVFSCSVMHEALHNHYTQKSLSLSPGK
Killing EC50 (nM), T cell + NCI-H929, + 10 ng/mL sAPRIL [1]: 0.0879 nM
Killing EC50 (nM), T cell + NCI-H929, + 10 ng/mL sBAFF [1]: 0.0787 nM
Killing EC50 (nM), T cell + NCI-H929, + 100 ng/mL sAPRIL [1]: 0.154 nM
Killing EC50 (nM), T cell + NCI-H929, + 100 ng/mL sBAFF [1]: 0.094 nM
Killing EC50 (nM), T cell + NCI-H929, no soluble ligand [1]: 0.0733 nM
Maximum MFI [2]: 5450 MFI
Killing EC50 (nM), T cell + NCI-H929, + 62.5 ng/ml sBCMA [3]: 0.176 nM
Killing EC50 (nM), T cell + NCI-H929, + 125 ng/mL sBCMA [3]: 0.234 nM
Killing EC50 (nM), T cell + NCI-H929, + 250 ng/mL sBCMA [3]: 0.387 nM
Killing EC50 (nM), T cell + NCI-H929, + 500 ng/mL sBCMA [3]: 0.546 nM
Killing EC50 (nM), T cell + NCI-H929, no sBCMA [3]: 0.0787 nM
Maximum MFI [4]: 15600 MFI
Maximum MFI [5]: 350000 MFI
IFN-γ release, EC50 [6]: 1360 pM
IFN-γ release, Maximum [6]: 1230 pg/mL
IL-2 release, EC50 [6]: 5290 pM
IL-2 release, Maximum [6]: 185 pg/mL
IL-6 release, EC50 [6]: 8200 pM
IL-6 release, Maximum [6]: 273 pg/mL
IL-10 release, EC50 [6]: 1960 pM
IL-10 release, Maximum [6]: 777 pg/mL
NCI-H929 killing, EC50 [6]: 590 pM
NCI-H929 killing, Maximum killing rate % [6]: 61.4%
TNF-α release, EC50 [6]: 5490 pM
TNF-α release, Maximum [6]: 1200 pg/mL
Kd [7]: 3350 pM
koff [7]: 0.0025 s⁻¹
kon [7]: 746000 M⁻¹ s⁻¹
Kd [8]: 1950 pM
koff [8]: 0.000629 s⁻¹
kon [8]: 322000 M⁻¹ s⁻¹
KD ratio (cy BCMA/hu BCMA) [9]: 1.72

B2: PR001035, anti-BCMA HCAb antibody, clone 1005P36F3 (antibody, human IgG1, V domains shown)
VH: EVQLVETGGGLIQPGGSLRLSCAASGFTVSSNYMTWVRQAPGKGLEWVSVIFSGGSTYYADSVKGRFTISRDNSKNTLYLQMNSLRAEDTAVYYCARRIAVAGHDVFDIWGQGTMVTVSS
notes: Heavy-chain-only antibody (HCAb), human IgG1 Fc, no light chain
Kd [10]: 276 pM
koff [10]: 8.98e-05 s⁻¹
kon [10]: 325000 M⁻¹ s⁻¹
EC50 [11]: 336 pM
Maximum MFI [11]: 39800
EC50 [12]: 1190 pM
Maximum MFI [12]: 113000
Maximum MFI [13]: 10800
